# According to the DeepSol protein solubility set:
# Experiment: soluble on expression in E. coli; label from the status in PepcDB or PDB records
row,Sequence,soluble on expression in E. coli
1,MGSDKIHHHHHHMSLEKERIEKEHIEEMNQAKLRFFTNVSHEFRTPLTLIISQVELMLQKNTIPPSLHNSIFRIRKHAQQMKLLISELLDFRKFDQNYIQLKLSEQSLNTFLEEVYLSFSAYASQKSISYHLKLLEQDISIWIDDWQMRKVLFNLLSNAFKHVPDKGEISILTSTTPDQVVIAVKDSGNGISKEEQERIFDRFYQADNRNKAIHVGTGIGLALTKSIIQLHHGTIEVESELNEGSCFIVKLPKTRDCFEKDTEVVFLESPEKEPMVQENTIPDENFMKKDDSTFETPLIDEREGKRKVLLVEDNVELLQVLKEIFSSLYQVVTAANGEEGLKQAFAEVPDLIVSDVMMPVMTGTEMCLKIKNNINLCHIPVVLLTALDTVDQNIEGLRRGADDYITKPFNAKILITRCNNLIRNRLLMQSRFAKDQILEINLLAANPIDKGFLDRVIKVVDKHIDNEDFDIGMLCQELGMGRTLLHTKFKALTGMTPNEFILNHRLKIASLMLKNEPYLQVAEISDRLGFGSPRYFSRCFKNQYNVTPMEYRKGAKQENLK,not soluble
2,MGSDKIHHHHHHMSLIERAADKLVKNDMNGFMPGSVSQHDSREGIGPDSLFSSDGVPGKKTGHGRIIKEEVGADRINKAADTKKTVKRIEVDLENLHRKGVVTLHHTKSEIAEQFRLIKRPLLANAFNPDSGVKNGNLIMVTSSLSGEGKSFCSLNLAMSIAMEMDHRVLLVDADVARPSIPATLGFSPEEPGLLDMLRDSQLSISDVMMKTNIKKLTLIPAGRRHTHATELLASQSMHSILVELAQRYHDRVVIFDSPPLLLTSEARVLASQMGQIVLVVEAERTTQQTVKEALQQIEACDVVNLIYNKARAHGSTEYYGYY,not soluble
3,MGSDKIHHHHHHMSLKEEQVSIKQDPEQEERQHDQFNDVQIKQESQDHDGVDSQYTNGTQNDDSERFEAAESDVKVEPGLGMGITSSQSEKGQVLPDQPEIKFIRRQINGYVGFANLPKQWHRRSIKNGFSFNLLCVGPDGIGKTTLMKTLFNNDDIEANLVKDYEEELANDQEEEEGQGEGHENQSQEQRHKVKIKSYESVIEENGVKLNLNVIDTEGFGDFLNNDQKSWDPIIKEIDSRFDQYLDAENKINRHSINDKRIHACLYFIEPTGHYLKPLDLKFMQSVYEKCNLIPVIAKSDILTDEEILSFKKTIMNQLIQSNIELFKPPIYSNDDAENSHLSERLFSSLPYAVIGSNDIVENYSGNQVRGRSYPWGVIEVDNDNHSDFNLLKNLLIKQFMEELKERTSKILYENYRSSKLAKLGIKQDNSVFKEFDPISKQLEEKTLHEAKLAKLEIEMKTVFQQKVSEKEKKLQKSETELFARHKEMKEKLTKQLKALEDKKKQLELSINSASPNVNHSPVPTKKKGFLR,not soluble
4,MGSDKIHHHHHHMSLLALFSLFGCDNAANTATICKNNPELCDDLHRDSWCRYERADLIQKRYTLKNTPSPTGKQIYQHLINLENYSKCIELAAGVQHIMHPERTNDRVRAFGISAQNLAQLRETTKDNPDLYLSYYHWIRLNDQAALSRVIKAQQAGSIKDLEILASLASYYQKSDLDKAKALYLQLLDSADPDSFNPDWLLGLASIYHQQNDLEKTYLFSKANVLMTRNTASDAKMNALINGNQQLAHFLDEQADTLVEHLKNGDYASSEIRAQLNTSS,not soluble
5,MGSDKIHHHHHHMSLRPYREIARRKSRQIHVGSVAVGGDAPISVQTMTNTLTTDVKGTLEQIRRAADAGADLVRVSCPDEDSTKAFKQIAKESPVPLIADIHFHYKRGIEAAEAGAACLRINPGNIGSHERVREVVKAAKDHGCSMRIGVNAGSLDKHLLDKYGEPCPEALVESALEHAKLLEDNDFFEFKIAVKASDVFLAVAAYQGLAKACDYPLHLGITEAGGLIGGTVKSSIGIGSLLWQGIGDTLRVSLSADVTEEVKVGFEMLKALDLRHRGVRIVSCPSCARQGFDVIKTVETLENRLSHVRAPVTLSILGCVVNGPGEARETMVGITGGGSDNHKVYIGGSPDHNVDGKSMVDHIVELVEARAAEIEAAKAGGK,not soluble
6,MGSDKIHHHHHHMSMNHIRPWRNIERRKSRQIHVGNVPVGGDAPIAVQTMTNTLTTDIKGTIAQVQAAADAGADIVRVSVPDEASARALKEIVRESPVPIVADIHFHYKRGIEAAEAGAACLRINPGNIGDEKRVAEVIKAARDHNCSIRIGVNAGSLEKHLLEKYGEPCPDAMVESGLDHIKILQDHDFHEFKISVKASDVFMSAAAYQMLADATDAPIHLGITEAGGLMSGTIKSAIGLGQLLWMGIGDTLRVSLSADPVEEVKVGFEILKSLGLRHRGVNIISCPSCARQGFDVIKTVETLEERLEHIKTPMSLSIIGCVVNGPGEALMTDVGFTGGGAGSGMVYLAGKASHKMSNDQMIDHIVEEVEKKAAALDAQAAEDMKAAE,not soluble
7,MGSDKIHHHHHHMSMTDTTLAETEILLAQPRGFCAGVDRAIEIVERAIKLHGSPIYVRHEIVHNAYVVEDLRKKGAIFIERLEEVPPGNTVIFSAHGVSKAVRSEAEIRGLRVYDATCPLVTKVHIEVAKMRQDGFDIVMIGHKGHPEVEGTMGQAGEGMHLVEDIEDVQALQLADPERIAFVTQTTLSVDDAAQIIAALKAKYPSIREPKKQDICYATQNRQDAVKFMAPQCDVVIVVGSPNSSNSNRLRELAEKLGVPAYMVDSPDQIDPVWVEGKRRIGVTAGASAPEVLAQAVIARLRELGVRNVRALDGIEENIAFPLPRGLGLPA,not soluble
8,MGSDKIHHHHHHMSNKQHSTTITLPRGTLDLTYQTNAASGNNDLKESSRYQLEDLLDFAQRINPKRAFLFVSKVLGRHIPVAPSTMRDAFTDLANLVPDDLPEPILVIGMAETAVGLSAGVHQALQTRYPQALLLNSTRHAQHDNDNTNNLLTTFSEDHSHASQHLIYQSADKVTQAQLLASKTLIMVDDEASTGNTCVNVVTALRNAGLMQLQQVHLTTLVDWSLNQNQTDAKADDTIASRLPNIDFYRHHLLSGAWKWTDAPNPEPIIMPSVDTTEAGSQALAHTGHWGRFPTLDSTDGFANYLASFQTTFAIFDGQTAFDNAQLPQKILVLGSNEFVWLPFLLAEWLEQNADTVIDNQVIKFSALTRSPIALGGGISTMLSFHDNYGLGMTNFAYNVDPSNWDLIVLCVETSADGVDAMWQDLDNVLIVSPK,not soluble
9,MGSDKIHHHHHHMSNRIDHAKAAGAFISKTEHVAFHDRRLWDLREKRDAQAHGIAEWETMRELASGIKEHTLSNLSTYLEQFAAAAEANGVTVHWAATAEEHNALVHQLMSERGMTTLVKSKSMLTDECKMREYLEPRGITVMETDLGERIQQLDHQDPSHMVVPAVHKLRADVAELFGRTIGTDPKNSDIHYLAESQRMNTRPYFVREKTAGMTGCNFAVAETGTVVVCTNEGNADLSANVPPLHIASIGIEKLIPKVSDLGVFIRMLSRSALGSPITQYTSHFRAPRKGTEMHFILVDHGRSERLAMEDFWYSLKCIRCGACMNTCPVYRRSGGLSYGGTYSGPIGAIINPTFDLKRYSALPFASTLNGSCTNVCPVKINIHEQIYKWRTVIAGHHEVPFVKQEVLKMAGRLLASPTLYRATVSSMGSALRRLPNFVLYNPLNIWGKQRELPEAPKLTFHAWYKKNRGADHDNA,not soluble
10,MGSDKIHHHHHHMSNSELYYEELTDLSVRIALGIKNRTEPLDELSQAMTQLSQTNAIKGNAANAMKAYINEVHMTLIQTLELLLNNYEMALGKYVKGYLEVDSDESFKLIKEDFDAHKNNLSSHQSDFTSIGNKLKAISDEAEDIISLRGAGSKRLFNVAKDMGTMKEIVSNLNNKWNDYEQSDPGFNQVQDLIAQTTSLLKSTLSVPRGYSYSPGSFSKLISKDFVNAFEVNANYAQNPDNQKAFKANWNSISKNYTTDQKRMAEEAKEEAQKDGRIGLIWDAIASCCRNSACCDRSWSGFWCCSHCRWY,not soluble
11,MGSDKIHHHHHHMSPRLGDSAEMFVPQEQSGLNEAAPAAPRRPYRLSRRPEERVHVLGGTMDLVRPEEVFHFVTGKLEARQNAIVANHNLHSLYLIGKDHQIGQFYKAADLIEVDSVPLIFWARLVGRASRRFHRCTYLDWRDAFWALASEKNWKVFFVGGAPGVGEKAVERIRQDWPNARIETHHGYFDATQGSAENTAVVAKIRDYAPDIVLVGMGMPRQEIWTLENHQAYGPAATFTVGGAFDYEAGVQKAAPRWMGPLGMEWLFRLMSDPQRLFFRYCIEPWSLIGPACGDVVRALSRRSTTGESRAAENARWEQIRARNEAAR,not soluble
12,MGSDKIHHHHHHMSQQTGEASKIKGRFRNSHKVYGAGLGDLVGIIKAYLGAKRSAPSPKSAVPLQPITPAELARPQARLYRLGHSTVLMYLDGKWLLTDPVFSERASPFQWAGPKRFHQSPIAIEALPDIDGLILSHDHYDHLDTAAIKALAARVKHFYMPLGVGKRLIRLGIDKARITELDWWQSVQLGTIELTATPAQHFSGRGLFDRDATLWAGWAIHGEQARVFFSGDSGYFPGFAEIGERLGPFDVTLMETGAYNELWRDIHMMPEESLQAHLDVKGQLMVPIHNGTFDLALHDWFEPLERIRALAWDRSVKIATPIFGEALSLTLPGSGSDWWAQESAISTGVDAREKGRAPAAESSMVGIAES,not soluble
13,MGSDKIHHHHHHMSRAITRAQLDKLVRSITKFYPQKYADKSWDNTGLLIDCSTAQVTTADANAKTKVLLTVDLTKSVAQEAVDANCNVIVAYHPFIFPSWNRLSPHTNPQHETAIKLIQYGISVYCPHTAVDAARGGVNDWLVRGLNNGENVAKSYALETVSGETDDLIGYGRFVEFNKDISLEQIVKNVKRVLRVPYVQVASLAAPSAWNQLKIKKVAVCAGSGSGVFKQLKEDVDLYYTGEMSHHEVLKWKEMGKTVIVCNHSNTERGFLQDVMKGLLQDEGHEVVVSKMDCDPLTVA,not soluble
14,MGSDKIHHHHHHMSRQEQTPLFSGVVAHAKHNPVQFHIPGHKKGAGMDPAFRSFIGDNALSIDLINIGPLDDLHHPHGIIKEAQELAAEAFGADHTFFSVQGTSGAIMTMIMSVVGPGEKIIVPRNVHKSIMSAIVFSGATPVFIHPEIDPLLGISHGITIEAVEKALDAHPDAKGLLVINPTYFGIAANLKKIVELCHSRDVPVLVDEAHGVHIHFHEALPLSAMQAGADMAATSVHKLGGSLTQSSILNVREGLVSAKRVQTIISMLTTTSTSYLLLASLDAARKHLATNGRDLIGYTIQLADQARDQINAIDGLYCVGKEILGTIATYDYDPTKLIISVKNLGITGYDAEVWLREHYQIEVELSDLYNILCIVSFGDTEREMDLLVKALSELADLHKHGICERSPVSVYVPNIPTLAMSPRDAFYAETEVVPFEDSVGRTIAEFIMVYPPGIPILIPGEIITESNLAYIRENNRAGLPVQGPEDDTFRTLRVIKEHEAIR,not soluble
15,MGSDKIHHHHHHMSSAQVNGISKRLIVESPNVKLEDGVLESRFTYRKNHFEHRADGLHVTPKEHDYSFKTVLKPRKTGLLLVGLGGNNGSTAVGSIFANQYAMTWRTKEGHSQANYFGSVTQTATVHLGYDSATQNQIFVPFKDIVPILSPNDLIISGWDISDSNLYEAMGRAKVFEPELQEKLRPFMEPIVPLPSIYYPDFIASNQGDRANNVIPGDNKLEHLEHIRADIRKFKQEHELECVIVLWTANTERYTDVRQGLNATADEIMESIRVNEDEVSPSNIFAVASILEGAHYINGSPQNTLVPGLIELAERHKVFVGGDDFKSGQTKFKSAFVDFLVSSGMKPESIVSYNHLGNNDGKNLSEARQFRSKEISKSSVVDDMVKSNQILFPDAKNPDYCVVIKYVPYVADSKRAMDEYICSIFMGGKQTFVVHNTCEDSLLASPLIYDLAILTELASRVSYKVDDEYKPFHSVLSILSLLLKAPVVPPGTPISNAFMRQFSTLTKLVTALAGFPSDTDMQIEFFTQLPAAKSKSQ,soluble
16,MGSDKIHHHHHHMSSCEIFPLISKLSAEGKRFAIVSIYKGNRLERTIVSDGRVLLGSLDRNIIEIALEALEKGKVIQKDLEDGKLVIEPIEPRPAIIVVGSGIIARFLAKLAIDMGYYVAVVGSGDVKEEDFSGVYAISNDLNLLEQMVSEDSIVIVANEGGKPYDIDALYIAMKKRARFVGLLASQKRAALMISLLVKRDIPLEEIKRRLHSPLGLDIGSKTAEEIALSILSEVVLDLRGGTGKRLQEVKNPYLLLDDALAGKIEDKCMFVPKSLSQQ,not soluble
